Values of other authors as cited in patent publication US6468965B1, “Pharmaceutical composition for oral administration of a mixture of chelating agents” (priority 2002, dated 2002).

How the values were obtained:
Porphyromonas gingivalis = settings: literature report, J. Biol. Chem. 2000
[1] = test system: VEGF165-Mediated Angiogenesis; settings: orally administered; literature report, Int. J. Cancer 2001
colon 26 carcinoma = settings: orally administered; literature report, Nutrition and Cancer 2000

B1: lactoferrin (protein, UniProt P24627 20-708, looked up)
Lactotransferrin: APRKNVRWCTISQPEWFKCRRWQWRMKKLGAPSITCVRRAFALECIRAIAEKKADAVTLDGGMVFEAGRDPYKLRPVAAEIYGTKESPQTHYYAVAVVKKGSNFQLDQLQGRKSCHTGLGRSAGWIIPMGILRPYLSWTESLEPLQGAVAKFFSASCVPCIDRQAYPNLCQLCKGEGENQCACSSREPYFGYSGAFKCLQDGAGDVAFVKETTVFENLPEKADRDQYELLCLNNSRAPVDAFKECHLAQVPSHAVVARSVDGKEDLIWKLLSKAQEKFGKNKSRSFQLFGSPPGQRDLLFKDSALGFLRIPSKVDSALYLGSRYLTTLKNLRETAEEVKARYTRVVWCAVGPEEQKKCQQWSQQSGQNVTCATASTTDDCIVLVLKGEADALNLDGGYIYTAGKCGLVPVLAENRKSSKHSSLDCVLRPTEGYLAVAVVKKANEGLTWNSLKDKKSCHTAVDRTAGWNIPMGLIVNQTGSCAFDEFFSQSCAPGADPKSRLCALCAGDDQGLDKCVPNSKEKYYGYTGAFRCLAEDVGDVAFVKNDTVWENTNGESTADWAKNLNREDFRLLCLDGTRKPVTEAQSCHLAVAPNHAVVSRSDRAAHVKQVLLHQQALFGKNGKNCPDKFCLFKSETKNLLFNDNTECLAKLGGRPTYEEYLGTEYVTAIANLKKCSTSPLLEACAFLTR
notes: 80 kDa mammalian iron-chelating glycoprotein obtainable from the whey protein of cow's milk
action on growth of the bacteria responsible for gingivitis (Porphyromonas gingivalis): inhibiting action | effect on angiogenesis [1]: inhibiting angiogenesis | effect on the lung colonization of colon 26 carcinoma (colon 26 carcinoma): significant inhibiting effect
